In the RNAGym collection of RNA variant scans (doi:10.1093/nar/gkz1192):

B1: CPEB3 Ribozyme (parent)
chain: UAACAGGGGGCCACAGCAGAAGCGUUCACGUCGCAGCCCCUGUCAGAUUCUGGUGAAUCUGCGAAUUCUGCUGUAUAUCUC

Variants of: B1
Experiment: self-cleavage, relative activity (ratio to wild type); higher = more cleavage; in vitro, sequencing
Summary of the method: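 CPEB3 self-cleaving ribozyme mutant libraries were made by rounds of error-prone PCR, barcoded, and transcribed in vitro with T7 RNA polymerase for 5 hours at 37°C. Cleavage occurred during transcription and a 15 min DNase I step before EDTA stop. RNAs were reverse transcribed with template switching and Illumina-sequenced, with DNA sequencing mapping barcodes to variants. Relative activity is the variant's cleaved/total read fraction divided by wild type's (minimum 5 reads), averaged across three batches.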

Variant	self-cleavage
UAACAGGGGGCCACAGCAGAAGCGUUCACGUCGCAGCCCCUGUCAGAUUCGGGUGAAUCUGCGAAUUCUGCUGUAUAUCUA [U51G C81A]	1.25
UAACAGGGGGCCACAGCAGAAGCGUUCACGUCGCAGCCCCUGUCAGAUUCCGGUGAAUCUGCGAAUUCUGCUGAAUAUCUC [U51C U74A]	1.3
UAACAGGGGGCCACAGCAGAAGCGUUCACGUCGCAGCCCCUGUCAGAUUCCGGUGAAUCUGCGAAUUCUGCUGCAUAUCUC [U51C U74C]	1.21
UAACAGGGGGCCACAGCAGAAGCGUUCACGUCGCAGCCCCUGUCAGAUUCCGGUGAAUCUGCGAAUUCUGCUGGAUAUCUC [U51C U74G]	1.21
UAACAGGGGGCCACAGCAGAAGCGUUCACGUCGCAGCCCCUGUCAGAUUCGGGUGAAUCUGCGAAUUAUGCUGUAUAUCUC [U51G C68A]	0.45
UAACAGGGGGCCACAGCAGAAGCGUUCACGUCGCAGCCCCUGUCAGAUUCGGGUGAAUCUGCGAAUUCUGCUGUGUAUCUC [U51G A75G]	0.89
UAACAGGGGGCCACAGCAGAAGCGUUCACGUCGCAGCCCCUGUCAGAUUCGGGUGAAUCUGCGAAUUCUGCUGUUUAUCUC [U51G A75U]	1.22
UAACAGGGGGCCACAGCAGAAGCGUUCACGUCGCAGCCCCUGUCAGAUUCCGGUGAAUCUGCGAAUUCCGCUGUAUAUCUC [U51C U69C]	0.6
UAACAGGGGGCCACAGCAGAAGCGUUCACGUCGCAGCCCCUGUCAGAUUCCGGUGAAUCUGCGAAUUCGGCUGUAUAUCUC [U51C U69G]	0.56
UAACAGGGGGCCACAGCAGAAGCGUUCACGUCGCAGCCCCUGUCAGAUUCCGGUGAAUCUGCGAAUUCAGCUGUAUAUCUC [U51C U69A]	0.7
UAACAGGGGGCCACAGCAGAAGCGUUCACGUCGCAGCCCCUGUCAGAUUCCGGUGAAUCUGCGAAUUCUGCUGUAUACCUC [U51C U78C]	0.99
UAACAGGGGGCCACAGCAGAAGCGUUCACGUCGCAGCCCCUGUCAGAUUCCGGUGAAUCUGCGAAUUCUGCUGUAUAACUC [U51C U78A]	1.02
UAACAGGGGGCCACAGCAGAAGCGUUCACGUCGCAGCCCCUGUCAGAUUCCGGUGAAUCUGCGAAUUCUGCUGUACAUCUC [U51C U76C]	1.07
UAACAGGGGGCCACAGCAGAAGCGUUCACGUCGCAGCCCCUGUCAGAUUCCGGUGAAUCUGCGAAUUCUGCUGUAAAUCUC [U51C U76A]	1.21
UAACAGGGGGCCACAGCAGAAGCGUUCACGUCGCAGCCCCUGUCAGAUUCCGGUGAAUCUGCGAAUUCUGCUGUAGAUCUC [U51C U76G]	1.16
UAACAGGGGGCCACAGCAGAAGCGUUCACGUCGCAGCCCCUGUCAGAUUCGGGUGAAUCUACGAAUUCUGCUGUAUAUCUC [U51G G61A]	0.45
UAACAGGGGGCCACAGCAGAAGCGUUCACGUCGCAGCCCCUGUCAGAUUCGGCUGAAUCUGCGAAUUCUGCUGUAUAUCUC [U51G G53C]	1.19

Variant	self-cleavage
UAACAGGGGGCCACAGCAGAAGCGUUCACGUCGCAGCCCCUGUCAGAUUCGGGUGAAUCUGCGAGUUCUGCUGUAUAUCUC [U51G A65G]	0.72
UAACAGGGGGCCACAGCAGAAGCGUUCACGUCGCAGCCCCUGUCAGAUUCGGGUGAAUCUGUGAAUUCUGCUGUAUAUCUC [U51G C62U]	0.24
UAACAGGGGGCCACAGCAGAAGCGUUCACGUCGCAGCCCCUGUCAGAUUCGGGUGAAUCUGCGAAUUCUGCUGUAUAUCUC [U51G]	0.99
UAACAGGGGGCCACAGCAGAAGCGUUCACGUCGCAGCCCCUGUCAGAUUCCGGUGAAUCUGCGAAUUCUGCUGUAUAUCGC [U51C U80G]	1.17
UAACAGGGGGCCACAGCAGAAGCGUUCACGUCGCAGCCCCUGUCAGAUUCCGGUGAAUCUGCGAAUUCUGCUGUAUAUCCC [U51C U80C]	1.15
UAACAGGGGGCCACAGCAGAAGCGUUCACGUCGCAGCCCCUGUCAGAUUCCGGUGAAUCUGCGAAUUCUGCUGUAUAUCAC [U51C U80A]	1.13
UAACAGGGGGCCACAGCAGAAGCGUUCACGUCGCAGCCCCUGUCAGAUUCCGGUGAAUCUGCGAAUUCUGCGGUAUAUCUC [U51C U72G]	0.88
UAACAGGGGGCCACAGCAGAAGCGUUCACGUCGCAGCCCCUGUCAGAUUCCGGUGAAUCUGCGAAUUCUGCCGUAUAUCUC [U51C U72C]	1.01
UAACAGGGGGCCACAGCAGAAGCGUUCACGUCGCAGCCCCUGUCAGAUUCCGGUGAAUCUGCGAAUUCUGCAGUAUAUCUC [U51C U72A]	0.75
UAACAGGGGGCCACAGCAGAAGCGUUCACGUCGCAGCCCCUGUCAGAUUCGGGUGAAUCUGCGAAUUCUGCUGUAUGUCUC [U51G A77G]	1.1
UAACAGGGGGCCACAGCAGAAGCGUUCACGUCGCAGCCCCUGUCAGAUUCGGGUGAAUCUGCGAAUUCUGCUGUAUUUCUC [U51G A77U]	1.16
UAACAGGGGGCCACAGCAGAAGCGUUCACGUCGCAGCCCCUGUCAGAUUCGGGUGUAUCUGCGAAUUCUGCUGUAUAUCUC [U51G A56U]	0.52
UAACAGGGGGCCACAGCAGAAGCGUUCACGUCGCAGCCCCUGUCAGAUUCGGGUGGAUCUGCGAAUUCUGCUGUAUAUCUC [U51G A56G]	0.65
UAACAGGGGGCCACAGCAGAAGCGUUCACGUCGCAGCCCCUGUCAGAUUCGGGUGCAUCUGCGAAUUCUGCUGUAUAUCUC [U51G A56C]	0.55
UAACAGGGGGCCACAGCAGAAGCGUUCACGUCGCAGCCCCUGUCAGAUUCGGGUGAAUCUGCGGAUUCUGCUGUAUAUCUC [U51G A64G]	0.85
UAACAGGGGGCCACAGCAGAAGCGUUCACGUCGCAGCCCCUGUCAGAUUCGGGUGAAUCUGCGUAUUCUGCUGUAUAUCUC [U51G A64U]	0.52
UAACAGGGGGCCACAGCAGAAGCGUUCACGUCGCAGCCCCUGUCAGAUUCGGGUGAGUCUGCGAAUUCUGCUGUAUAUCUC [U51G A57G]	0.74
